# According to patent publication US9493781B2, “Synthetic brassica-derived chloroplast transit peptides” (DOW AGROSCIENCES LLC, priority 2012, dated 2016):
# B1: pDAB105533: TraP12 v2 -- dgt-28 v5: binary construct TraP12 v2: dgt-28 v5 (SEQ ID NO:36) (nucleic acid)
# DNA: ATGGCACAATCTAGCAGAATCTGCCACGGTGTGCAGAACCCATGTGTGATCATTTCAAATCTCTCAAAGTCCAATCAGAACAAATCACCTTTCTCCGTCTCCCTCAAGACACACCAGCATCCAAGGGCATACCCGATAAGCAGCTCATGGGGACTCAAGAAGAGCGGAATGACTCTGATTGGCTCTGAGCTTCGTCCTCTTAAGGTTATGTCCTCTGTTTCCGCAGCAAGAGGGATGCCAGCCTTGTCTTTACCTGGATCAAAGAGTATCACAGCTAGGGCACTCTTTCTTGCTGCTGCTGCTGATGGGGTTACTACTTTGGTGAGGCCATTGAGAAGTGACGACACAGAAGGATTCGCTGAGGGGTTAGTTCGTTTAGGCTATCGTGTAGGGAGGACACCCGATACTTGGCAAGTCGATGGCAGACCACAAGGACCAGCAGTGGCTGAGGCTGACGTCTACTGTAGAGACGGAGCAACCACCGCTAGATTCTTGCCAACCTTAGCAGCTGCTGGTCACGGAACATACAGATTTGATGCTTCACCACAGATGAGGAGACGTCCTCTTTTGCCCTTAAGCAGAGCCTTGAGGGATTTGGGTGTCGATCTTAGACACGAAGAAGCTGAAGGTCATCACCCTCTGACTGTCCGTGCTGCTGGGGTTGAAGGAGGAGAGGTTACTTTGGATGCTGGTCAGTCAAGTCAGTATCTCACTGCCTTGTTGCTCCTTGGTCCCCTTACAAGACAAGGACTGAGGATAAGGGTTACTGATTTGGTGTCAGCACCATACGTGGAGATTACGCTTGCAATGATGAGGGCTTTCGGAGTTGAAGTGGCAAGGGAGGGAGATGTGTTCGTTGTTCCACCTGGTGGATATCGTGCAACTACGTATGCTATAGAACCCGACGCAAGTACTGCTTCTTACTTCTTCGCAGCTGCTGCTTTGACTCCTGGAGCTGAAGTGACTGTACCTGGGTTAGGCACGGGAGCACTTCAAGGAGATTTGGGATTTGTAGATGTCTTAAGGAGAATGGGAGCCGAGGTGTCCGTAGGAGCTGATGCAACCACTGTTAGAGGAACTGGTGAATTGCGTGGCCTTACAGCCAACATGAGAGACATAAGTGATACGATGCCGACCCTCGCTGCAATAGCACCCTTTGCTAGTGCTCCAGTTAGAATCGAGGATGTTGCCAACACTCGTGTCAAAGAATGTGACAGACTTGAGGCTTGTGCAGAGAACCTTAGGAGGTTGGGAGTAAGGGTTGCAACGGGTCCGGACTGGATTGAGATACACCCTGGTCCAGCTACTGGTGCTCAAGTCACAAGCTATGGTGATCACAGAATTGTGATGTCATTTGCAGTGACTGGACTTCGTGTGCCTGGGATCAGCTTCGACGACCCTGGCTGTGTTCGTAAGACTTTTCCTGGGTTTCACGAGGCTTTCGCAGAATTGAGGCGTGGCATTGGGAGCTGA
# modifications: In-frame fusion of dgt-28 v5 and TraP12 v2
# B2: pDAB105534: TraP13 v2 -- dgt-28 v5: binary construct TraP13 v2:dgt-28 v5 (SEQ ID NO:37) (nucleic acid)
# DNA: ATGGCACAAGTTAGCAGAATCTGTAATGGTGTGCAGAACCCATCTCTTATCTCCAATCTCTCAAAGTCCAGCCAACGTAAGTCTCCCCTCAGCGTGTCTCTGAAAACTCAGCAGCCCAGAGCTTCTTCATGGGGTTTGAAGAAATCTGGAACGATGCTTAACGGCTCAGTCATTCGTCCGGTTAAGGTGACAGCCTCCGTCTCCGCTGCTAGAGGGATGCCAGCCTTGTCTTTACCTGGATCAAAGAGTATCACAGCTAGGGCACTCTTTCTTGCTGCTGCTGCTGATGGGGTTACTACTTTGGTGAGGCCATTGAGAAGTGACGACACAGAAGGATTCGCTGAGGGGTTAGTTCGTTTAGGCTATCGTGTAGGGAGGACACCCGATACTTGGCAAGTCGATGGCAGACCACAAGGACCAGCAGTGGCTGAGGCTGACGTCTACTGTAGAGACGGAGCAACCACCGCTAGATTCTTGCCAACCTTAGCAGCTGCTGGTCACGGAACATACAGATTTGATGCTTCACCACAGATGAGGAGACGTCCTCTTTTGCCCTTAAGCAGAGCCTTGAGGGATTTGGGTGTCGATCTTAGACACGAAGAAGCTGAAGGTCATCACCCTCTGACTGTCCGTGCTGCTGGGGTTGAAGGAGGAGAGGTTACTTTGGATGCTGGTCAGTCAAGTCAGTATCTCACTGCCTTGTTGCTCCTTGGTCCCCTTACAAGACAAGGACTGAGGATAAGGGTTACTGATTTGGTGTCAGCACCATACGTGGAGATTACGCTTGCAATGATGAGGGCTTTCGGAGTTGAAGTGGCAAGGGAGGGAGATGTGTTCGTTGTTCCACCTGGTGGATATCGTGCAACTACGTATGCTATAGAACCCGACGCAAGTACTGCTTCTTACTTCTTCGCAGCTGCTGCTTTGACTCCTGGAGCTGAAGTGACTGTACCTGGGTTAGGCACGGGAGCACTTCAAGGAGATTTGGGATTTGTAGATGTCTTAAGGAGAATGGGAGCCGAGGTGTCCGTAGGAGCTGATGCAACCACTGTTAGAGGAACTGGTGAATTGCGTGGCCTTACAGCCAACATGAGAGACATAAGTGATACGATGCCGACCCTCGCTGCAATAGCACCCTTTGCTAGTGCTCCAGTTAGAATCGAGGATGTTGCCAACACTCGTGTCAAAGAATGTGACAGACTTGAGGCTTGTGCAGAGAACCTTAGGAGGTTGGGAGTAAGGGTTGCAACGGGTCCGGACTGGATTGAGATACACCCTGGTCCAGCTACTGGTGCTCAAGTCACAAGCTATGGTGATCACAGAATTGTGATGTCATTTGCAGTGACTGGACTTCGTGTGCCTGGGATCAGCTTCGACGACCCTGGCTGTGTTCGTAAGACTTTTCCTGGGTTTCACGAGGCTTTCGCAGAATTGAGGCGTGGCATTGGGAGCTGA
# modifications: In-frame fusion of dgt-28 v5 and TraP13 v2
# Tests used:
# Arabidopsis [1] = assay: dgt-28, dgt-32, dgt-33, dgt-3, dgt-7 transformed Arabidopsis (T1, T2, T3) response to postemergence glyphosate, % visual injury; assay type: in vivo, Arabidopsis thaliana; details: 14 days after application
# In short: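 Transgenic T1, T2 and T3 Arabidopsis (low-copy events for T2/T3, hemizygous and homozygous in T2) sprayed postemergence with glyphosate at 105, 420, 1,680 or 3,360 g ae/ha. Visual injury scored 2 weeks after treatment as mean, SD and range. Non-transformed Columbia served as sensitive control.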
# Arabidopsis [2] = assay: Heritability progeny test of T1 families (T2 plants) with glufosinate, Arabidopsis; assay type: in vivo, Arabidopsis thaliana; details: progeny test of 100 T2 plants, glufosinate 200 g ae/ha
# In short: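 Self-pollinated T1 Arabidopsis events gave T2 seed; 100 random T2 siblings were sprayed with glufosinate at 200 g ae/ha and scored resistant/sensitive, segregation tested by Chi square against 3:1.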
# [3] = Table 8, T1 Arabidopsis, 105 g ae/ha glyphosate
# [4] = Table 8, T1 Arabidopsis, 420 g ae/ha glyphosate
# [5] = Table 8, T1 Arabidopsis, 1680 g ae/ha glyphosate
# [6] = Table 8, T1 Arabidopsis, 3360 g ae/ha glyphosate
# [7] = Table 10, T1 Arabidopsis, 1,680 g ae/ha glyphosate
# [8] = Table 12, T2 Arabidopsis, 1 copy, 420 g ae/ha glyphosate
# [9] = Table 12, T2 Arabidopsis, 1 copy, 840 g ae/ha glyphosate
# [10] = Table 12, T2 Arabidopsis, 1 copy, 1680 g ae/ha glyphosate
# [11] = Table 12, T2 Arabidopsis, 1 copy, 3360 g ae/ha glyphosate
molecule,measurement,setting,value
B1,% Injury Ave,Arabidopsis [1]; [3],10.0%
same,% Injury Range (%),Arabidopsis [1]; [3],0-25%
same,No. plants with 20-40% injury,Arabidopsis [1]; [3],1
same,No. plants with <20% injury,Arabidopsis [1]; [3],4
same,No. plants with >40% injury,Arabidopsis [1]; [3],0
same,% Injury Ave,Arabidopsis [1]; [4],53.6%
same,% Injury Range (%),Arabidopsis [1]; [4],8-85%
same,No. plants with 20-40% injury,Arabidopsis [1]; [4],1
same,No. plants with <20% injury,Arabidopsis [1]; [4],1
same,No. plants with >40% injury,Arabidopsis [1]; [4],3
same,% Injury Ave,Arabidopsis [1]; [5],11.0%
same,% Injury Range (%),Arabidopsis [1]; [5],0-20%
same,No. plants with 20-40% injury,Arabidopsis [1]; [5],1
same,No. plants with <20% injury,Arabidopsis [1]; [5],4
same,No. plants with >40% injury,Arabidopsis [1]; [5],0
same,% Injury Ave,Arabidopsis [1]; [6],55.0%
same,% Injury Range (%),Arabidopsis [1]; [6],25-80%
same,No. plants with 20-40% injury,Arabidopsis [1]; [6],2
same,No. plants with <20% injury,Arabidopsis [1]; [6],0
same,No. plants with >40% injury,Arabidopsis [1]; [6],3
same,% Injury Ave,Arabidopsis [1]; [7],11.0%
same,% Injury Range (%),Arabidopsis [1]; [7],0-20%
same,No. plants with 20-40% injury,Arabidopsis [1]; [7],1
same,No. plants with <20% injury,Arabidopsis [1]; [7],4
same,No. plants with >40% injury,Arabidopsis [1]; [7],0
same,% Injury Ave,Arabidopsis [1]; [8],0.0%
same,% Injury Range (%),Arabidopsis [1]; [8],0%
same,No. plants with 20-40% injury,Arabidopsis [1]; [8],0
same,No. plants with <20% injury,Arabidopsis [1]; [8],4
same,No. plants with >40% injury,Arabidopsis [1]; [8],0
same,% Injury Ave,Arabidopsis [1]; [9],0.0%
same,% Injury Range (%),Arabidopsis [1]; [9],0%
same,No. plants with 20-40% injury,Arabidopsis [1]; [9],0
same,No. plants with <20% injury,Arabidopsis [1]; [9],4
same,No. plants with >40% injury,Arabidopsis [1]; [9],0
same,% Injury Ave,Arabidopsis [1]; [10],0.0%
same,% Injury Range (%),Arabidopsis [1]; [10],0%
same,No. plants with 20-40% injury,Arabidopsis [1]; [10],0
same,No. plants with <20% injury,Arabidopsis [1]; [10],4
same,No. plants with >40% injury,Arabidopsis [1]; [10],0
same,% Injury Ave,Arabidopsis [1]; [11],13.3%
same,% Injury Range (%),Arabidopsis [1]; [11],8-25%
same,No. plants with 20-40% injury,Arabidopsis [1]; [11],1
same,No. plants with <20% injury,Arabidopsis [1]; [11],3
same,No. plants with >40% injury,Arabidopsis [1]; [11],0
same,T1 Families Tested Segregating at 1 Locus (%),Arabidopsis [2],50%
B2,% Injury Ave,Arabidopsis [1]; [3],14.0%
same,% Injury Range (%),Arabidopsis [1]; [3],0-50%
same,No. plants with 20-40% injury,Arabidopsis [1]; [3],0
same,No. plants with <20% injury,Arabidopsis [1]; [3],4
same,No. plants with >40% injury,Arabidopsis [1]; [3],1
same,% Injury Ave,Arabidopsis [1]; [4],17.6%
same,% Injury Range (%),Arabidopsis [1]; [4],0-50%
same,No. plants with 20-40% injury,Arabidopsis [1]; [4],1
same,No. plants with <20% injury,Arabidopsis [1]; [4],3
same,No. plants with >40% injury,Arabidopsis [1]; [4],1
same,% Injury Ave,Arabidopsis [1]; [5],39.0%
same,% Injury Range (%),Arabidopsis [1]; [5],5-100%
same,No. plants with 20-40% injury,Arabidopsis [1]; [5],0
same,No. plants with <20% injury,Arabidopsis [1]; [5],3
same,No. plants with >40% injury,Arabidopsis [1]; [5],2
same,% Injury Ave,Arabidopsis [1]; [6],31.2%
same,% Injury Range (%),Arabidopsis [1]; [6],18-70%
same,No. plants with 20-40% injury,Arabidopsis [1]; [6],2
same,No. plants with <20% injury,Arabidopsis [1]; [6],2
same,No. plants with >40% injury,Arabidopsis [1]; [6],1
same,% Injury Ave,Arabidopsis [1]; [7],39.0%
same,% Injury Range (%),Arabidopsis [1]; [7],5-100%
same,No. plants with 20-40% injury,Arabidopsis [1]; [7],0
same,No. plants with <20% injury,Arabidopsis [1]; [7],3
same,No. plants with >40% injury,Arabidopsis [1]; [7],2
same,% Injury Ave,Arabidopsis [1]; [8],5.0%
same,% Injury Range (%),Arabidopsis [1]; [8],0-20%
same,No. plants with 20-40% injury,Arabidopsis [1]; [8],1
same,No. plants with <20% injury,Arabidopsis [1]; [8],3
same,No. plants with >40% injury,Arabidopsis [1]; [8],0
same,% Injury Ave,Arabidopsis [1]; [9],5.0%
same,% Injury Range (%),Arabidopsis [1]; [9],0-20%
same,No. plants with 20-40% injury,Arabidopsis [1]; [9],1
same,No. plants with <20% injury,Arabidopsis [1]; [9],3
same,No. plants with >40% injury,Arabidopsis [1]; [9],0
same,% Injury Ave,Arabidopsis [1]; [10],10.0%
same,% Injury Range (%),Arabidopsis [1]; [10],0-20%
same,No. plants with 20-40% injury,Arabidopsis [1]; [10],2
same,No. plants with <20% injury,Arabidopsis [1]; [10],2
same,No. plants with >40% injury,Arabidopsis [1]; [10],0
same,% Injury Ave,Arabidopsis [1]; [11],15.0%
same,% Injury Range (%),Arabidopsis [1]; [11],5-30%
same,No. plants with 20-40% injury,Arabidopsis [1]; [11],2
same,No. plants with <20% injury,Arabidopsis [1]; [11],2
same,No. plants with >40% injury,Arabidopsis [1]; [11],0
same,T1 Families Tested Segregating at 1 Locus (%),Arabidopsis [2],75%
